Measured values reported in patent publication US20200138969A1 (published 2020).

B1: SC16.34 (antibody, V domains shown)
VH: QIQLVQSGPELKRPGETVKISCKASGYTFTNYGMNWVKQAPGKGLKWMGWINTYTGDPTYADDFKGRFAFSLETSASTAYLQINNLKNEDTATYFCARIGGNSPSDYWGQGTSLTVSS
VL: SIVMTQTPKFLLVSAGDRVTITCKASQSVSNDVAWYQQKPGQSPKLLIYYASNRYSGVPDRFTGSGYGTDFTFTISTVQAEDLAVYFCQQDYSSPWTFGGGTKLEIK
B2: SC16.15 (antibody, V domains shown)
VH: QVQLQQSGAELAKPGASVKMSCKASGYTFTRYWIHWIKQRPGQGLEWIGYINPTTVYTEFNQNFKDKATLTADKSSTTASMQLSSLTSEDSAVYYCARGGSNFFDYWGQGTTLTVSS
VL: DIQMTQSPASLAASVGETVAITCRASENIYYNLAWYQQKQGKSPQLLIYTANSLEDGVPSRFSGSGSGTQYSLKINSMQPEDSATYFCKQAYDVPPTFGGGTKLEIK

Molecular target: T1, human DLL3 (delta-like ligand 3), on the cell surface (human, UniProt Q9NYJ7 27-618)
T1 sequence: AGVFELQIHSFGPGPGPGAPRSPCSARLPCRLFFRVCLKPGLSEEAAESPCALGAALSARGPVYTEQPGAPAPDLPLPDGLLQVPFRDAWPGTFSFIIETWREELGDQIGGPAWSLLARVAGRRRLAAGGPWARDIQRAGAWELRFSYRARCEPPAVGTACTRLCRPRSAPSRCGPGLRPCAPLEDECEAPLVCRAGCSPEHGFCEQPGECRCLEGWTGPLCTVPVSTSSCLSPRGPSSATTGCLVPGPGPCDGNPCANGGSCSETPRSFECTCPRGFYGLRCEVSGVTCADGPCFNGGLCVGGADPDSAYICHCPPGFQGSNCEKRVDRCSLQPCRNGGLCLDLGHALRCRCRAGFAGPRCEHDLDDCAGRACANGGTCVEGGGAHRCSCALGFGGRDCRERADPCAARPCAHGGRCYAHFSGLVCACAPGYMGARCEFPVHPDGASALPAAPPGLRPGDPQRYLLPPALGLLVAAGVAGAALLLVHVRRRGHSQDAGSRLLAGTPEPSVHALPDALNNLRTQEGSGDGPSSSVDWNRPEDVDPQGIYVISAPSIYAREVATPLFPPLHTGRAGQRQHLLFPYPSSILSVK
Assay: cell-based or functional assay

Binder	EC50 of killing of OV26 (ovarian NET NTX tumor) cells with anti-mouse IgG Fab-saporin [nM]
B1	5700
B2	140
